Results published in PMC6764986.

Target: ALFA-tagged target immobilized for SPR (TST-NEDD8-ALFA or GFP-ALFA)
Test: SPR; ALFA-tagged ligand (TST-NEDD8-ALFA or GFP-ALFA) coupled by EDC-NHS to HC1000m chip; NbALFA as analyte; 20 °C, 40 µL/min, PBS with 0.002% Tween-20 pH 7.4; dissociation followed for > 7 h

B1: NbALFA (non-tagged) (VHH)
VHH: EVQLQESGGGLVQPGGSLRLSCTASGVTISALNAMAMGWYRQAPGERRVMVAAVSERGNAMYRESVQGRFTVTRDFTNKMVSLQMDNLKPEDTAVYYCHVLEDRVDSFHDYWGQGTQVTVSS
For B1, the Kd was 0.026 nM.
